Measurements as given in patent US4783441A, “Aqueous protein solutions stable to denaturation” (Hoechst Aktiengesellschaft, priority 1979, dated 1988).

B1: Egg-albumin: egg albumin (protein, UniProt P01012 2-386, looked up)
Ovalbumin: GSIGAASMEFCFDVFKELKVHHANENIFYCPIAIMSALAMVYLGAKDSTRTQINKVVRFDKLPGFGDSIEAQCGTSVNVHSSLRDILNQITKPNDVYSFSLASRLYAEERYPILPEYLQCVKELYRGGLEPINFQTAADQARELINSWVESQTNGIIRNVLQPSSVDSQTAMVLVNAIVFKGLWEKAFKDEDTQAMPFRVTEQESKPVQMMYQIGLFRVASMASEKMKILELPFASGTMSMLVLLPDEVSGLEQLESIINFEKLTEWTSSNVMEERKIKVYLPRMKMEEKYNLTSVLMAMGITDVFSSSANLSGISSAESLKISQAVHAAHAEINEAGREVVGSAEAGVDAASVSEEFRADHPFLFCIKHIATNAVLFFGRCVSP

Assays:
[1] = Shaking test of peptide hormone solutions at 37° C., Example 5; settings: for appearance after a few days of shaking: 0.1% solution in 0.05M Tris/HCl buffer pH 7.5, shaken at 37° C., without stabilizer; for appearance of stabilized samples: 0.1% solution in 0.05M Tris/HCl pH 7.5, shaken at 37° C., with 10 ppm block polymer (PPG MW 2,000, 5% PEG each side)
[2] = Adsorption of β-galactosidase on silicone oil emulsion, enzyme activity in aqueous phase, Example 2; type: physicochemical
Protocol: Ten samples of 10 ml each of a 0.01% solution of the enzyme β-galactosidase from E. coli in 0.01M phosphate buffer, pH 7, with 3×10^6 μU/ml were admixed stepwise with 10 to 100 mg of silicone oil AK 350 and the suspensions were shaken for 48 hours at 5° C. Emulsions were formed which could be separated into two phases by ultracentrifugation (40,000 g, 30 minutes, 4° C.). The enzyme activity in the aqueous phase was determined.

[3] = Shaking test of albumin solutions at 37° C. (turbidity from denatured protein), Example 1b; type: physicochemical; settings: 0.1% solution in 0.01M phosphate buffer pH 7, shaken at 37° C.
[4] = Adsorption of proteins on polystyrene beads at 5° C., protein concentration in filtrate, Example 3; type: physicochemical; settings: for protein concentration in solution, A: A = 3 ml of protein solution + 450 μl of buffer (no polystyrene), phosphate buffer pH 7; for protein concentration in solution (filtrate), B: B = after contact with treated polystyrene surfaces (block polymer PPG MW 2,250, 5% PEG each side; 20 ppm present); for protein concentration in solution (filtrate), B / protein concentration in solution (filtrate), C: shaken at 5° C., 0.2 μm filtered; for protein concentration in solution (filtrate), C: C = after contact with untreated polystyrene surfaces
Protocol: 10 ml of an aqueous suspension of polystyrene beads (Dow-Latex®) having an average diameter of 0.481 μm were divided in two aliquots, one of which remained untreated while the other was shaken for 2 days at room temperature with 50 mg of a block polymer consisting of a linear polypropylene glycol chain with an average molecular weight of 2,250 (Dalton) on each side of which 5% of polyethylene glycol had been added by polymerization. The excess block polymer was then removed by dialysis against an aqueous solution containing 20 ppm of the same polymeric, surface-active substance.
Two times 3 ml portions of a solution of the proteins indicated in the following table in the given concentrations in phosphate buffer, pH 7, were prepared and each solution was shaken at 5° C. with 500 μl each of the untreated polystyrene suspension or the polystyrene suspension treated as described above, the latter still containing 20 ppm of the block polymer. Each sample was then filtered to clarity through a 0.2 μm filter.
A=3 ml of the respective protein solution+450 μl of buffer
B=after contact with treated polystyrene surfaces
C=after contact with untreated polystyrene surfaces.

[5] = Shaking test of protein solutions at 37° C. with analytical ultracentrifuge check, Example 6; type: physicochemical
Protocol: 0.1% solutions of egg albumin, human immunoglobulin-G and myoglobin of the whale, respectively, in 0.01M phosphate buffer, pH 7, and analogous solutions containing 0.1%, calculated on the weight of the solution, of the following compound [drawing 4] in which n and m are chosen to obtain a compound having an average total molecular weight of 12,500 Daltons with an ethylene oxide proportion of 40%, were freed from aggregates by ultracentifugation (for example 100,000 g/90 minutes). Ampules containing 10 ml each of the solutions were shaken at 37° C.

Molecule | appearance after a few days of shaking [1] | protein concentration in solution, A [4] [mg/mL] | protein concentration in solution (filtrate), B [4] [mg/mL] | protein concentration in solution (filtrate), C [4] [mg/mL] | other results
cholecystokinin | had become turbid |  |  |  | appearance of stabilized samples [1]: remained clear even after several months
gastrin | had become turbid |  |  |  | 
β-galactosidase: enzyme β-galactosidase from E. coli |  |  |  |  | enzyme adsorbed by silicone oil emulsion ([2]; 0.01% solution, 0.01M phosphate buffer pH 7, 10 to 100 mg silicone oil AK 350, shaken 48 hours at 5° C., without stabilizer): up to 70%; enzyme activity adsorbed on silicone oil ([2]; same test in the presence of 100 ppm of compound drawing 2): no enzyme activity had been adsorbed
gastrin inhibiting polypeptide: peptide hormone | had become turbid |  |  |  | 
bovine serum albumin: bovine serum albumin, 0.1% solution |  |  |  |  | appearance of sample containing stabilizer ([3]; with 10 ppm block polymer (polypropylene glycol MW 1,750, 5% polyethylene glycol on each side)): still limpid after several month; time after which sample became strongly turbid (denatured protein) ([3]; without stabilizer): 7 days
adrenocorticotropic hormone: peptide hormone (SYSMEHFRWGKPVGKKRRPVKVYPNGAEDESAEAFPLEF; Corticotropin; UniProt P01189 138-176, looked up) | had become turbid |  |  |  | appearance of stabilized samples [1]: remained clear even after several months
Lysozyme |  | 1.0 | 0.95 | 0.25 | 
Insulin |  | 1.0 | 1.0 | 0.2 | 
calcitonin | had become turbid |  |  |  | appearance of stabilized samples [1]: remained clear even after several months
secretin: peptide hormone | had become turbid | 1.0 | 1.0 | 0.3 | 
B1 |  | 0.5 | 0.50 | 0.22 | appearance of samples without stabilizer ([5]; 0.1% solution in 0.01M phosphate buffer pH 7, freed from aggregates, shaken at 37° C., without stabilizer): became strongly turbid after a few hours; appearance of samples containing surface-active substance ([5]; 0.1% solution in 0.01M phosphate buffer pH 7, shaken at 37° C., with 0.1% of compound drawing 4 (MW 12,500, 40% ethylene oxide)): remained limpid for several months; new aggregates in analytical ultracentrifuge ([5]; samples with 0.1% of compound drawing 4 after shaking at 37° C.): no new aggregate could be found
